The values that follow come from patent EP4702992A1 (CSPC Megalith Biopharmaceutical Co., Ltd., dated 2024).

Sequences and labels used below:
T1: recombinant human DLL3 protein (Kactus Biosystems, Cat. No. DLL-HM103) (human, UniProt Q9NYJ7 27-492, limits assumed)
T1 construct: Bought protein coated on the ELISA plate; also called Human DLL3 proteins
T1 sequence (looked up): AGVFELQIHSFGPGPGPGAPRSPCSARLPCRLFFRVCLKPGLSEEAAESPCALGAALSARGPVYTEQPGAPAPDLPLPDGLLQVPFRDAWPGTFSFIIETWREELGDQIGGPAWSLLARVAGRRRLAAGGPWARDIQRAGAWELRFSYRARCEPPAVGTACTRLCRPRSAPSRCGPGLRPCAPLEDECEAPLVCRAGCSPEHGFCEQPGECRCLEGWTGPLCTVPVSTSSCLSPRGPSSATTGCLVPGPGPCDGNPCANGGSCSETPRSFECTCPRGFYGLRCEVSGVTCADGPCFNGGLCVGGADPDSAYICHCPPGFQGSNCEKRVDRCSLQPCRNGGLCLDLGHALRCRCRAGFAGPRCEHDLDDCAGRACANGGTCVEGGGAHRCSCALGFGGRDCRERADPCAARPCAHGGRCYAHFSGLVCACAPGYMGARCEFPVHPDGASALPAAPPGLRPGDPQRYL

T2: B7H3 antigen on the surface of A375 cells (human, UniProt Q5ZPR3 29-534)
T2 construct: whole, on cells
T2 sequence (looked up): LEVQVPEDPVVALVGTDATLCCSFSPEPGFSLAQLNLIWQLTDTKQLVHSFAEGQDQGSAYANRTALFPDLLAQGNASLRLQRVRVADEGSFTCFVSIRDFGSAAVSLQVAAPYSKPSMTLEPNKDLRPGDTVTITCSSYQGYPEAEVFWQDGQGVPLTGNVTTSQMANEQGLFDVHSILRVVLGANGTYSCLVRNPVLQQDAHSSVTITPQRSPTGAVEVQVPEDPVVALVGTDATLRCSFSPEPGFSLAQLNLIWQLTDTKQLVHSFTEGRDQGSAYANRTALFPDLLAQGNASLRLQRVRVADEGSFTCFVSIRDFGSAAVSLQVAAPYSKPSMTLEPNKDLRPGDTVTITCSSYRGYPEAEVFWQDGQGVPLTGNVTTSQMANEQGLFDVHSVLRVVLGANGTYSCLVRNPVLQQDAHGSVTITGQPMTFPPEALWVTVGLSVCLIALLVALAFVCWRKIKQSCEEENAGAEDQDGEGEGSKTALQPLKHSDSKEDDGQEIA

B1: 33B (antibody, human IgG1, kappa, L234A L235A, V domains shown)
VH: QVQLVQSGAEVKKPGASVKVSCKASGYTFTDYYMKWVRQAPGQRLEWMGAFNLNNGDTFYNQKFKGRVTITRDTSASTAYMELSSLRSEDTAVYYCARDVYGYGDYWGQGTSVTVSS
VL: DIVMTQSPDSLAVSLGERATINCRASKSVSTSGYSYMHWYQQKPGQPPKLLIYLASNLDSGVPDRFSGSGSGTDFTLTISSLQAEDVAVYYCQHSRELPYTFGGGTKLEIKR
notes: Naked anti-DLL3 antibody
B2: D-ADC12-1-8 (antibody, human IgG1, kappa, L234A L235A, V domains shown)
VH: B1 VH
VL: B1 VL
modifications: linker-drug LD12-1 (exatecan payload) conjugated to sulfhydryls of reduced interchain disulfide cysteines; average DAR 8.0 per antibody
notes: Antibody-drug conjugate: 33B + LD12-1, DAR 8.0
B3: D-BATADC (antibody, human IgG1, kappa, L234A L235A, V domains shown)
VH: B1 VH
VL: B1 VL
modifications: control linker-drug BATLD conjugated to the antibody; average DAR 7.7 per antibody
B4: D-ADC2-1-8 (antibody, human IgG1, kappa, L234A L235A, V domains shown)
VH: B1 VH
VL: B1 VL
modifications: linker-drug LD2-1 (exatecan payload) conjugated to sulfhydryls of reduced interchain disulfide cysteines; average DAR 8.0 per antibody
notes: Antibody-drug conjugate: 33B + LD2-1, DAR 8.0
B5: D-ADC55-1-8 (antibody, human IgG1, kappa, L234A L235A, V domains shown)
VH: B1 VH
VL: B1 VL
modifications: linker-drug LD55-1 (exatecan payload) conjugated to sulfhydryls of reduced interchain disulfide cysteines; average DAR 8.0 per antibody
notes: Antibody-drug conjugate: 33B + LD55-1, DAR 8.0
B6: Farletuzumab (antibody, human IgG1, kappa)
heavy: not shown
light: DIQLTQSPSSLSASVGDRVTITCSVSSSISSNNLHWYQQKPGKAPKPWIYGTSNLASGVPSRFSGSGSGTDYTFTISSLQPEDIATYYCQQWSSYPYMYTFGQGTKVEIKRTVAAPSVFIFPPSDEQLKSGTASVVCLLNNFYPREAKVQWKVDNALQSGNSQESVTEQDSKDSTYSLSSTLTLSKADYEKHKVYACEVTHQGLSSPVTKSFNRGEC
notes: Naked anti-FRα antibody
B7: F-ADC55-1-8 (antibody, human IgG1, kappa)
heavy: not shown
light: B6 light
modifications: linker-drug LD55-1 (exatecan payload) conjugated to sulfhydryls of reduced interchain disulfide cysteines; average DAR 7.6 per antibody
notes: Antibody-drug conjugate: farletuzumab + LD55-1, DAR 7.6
B8: Farletuzumab-FcS (antibody, human IgG1, kappa, L234A L235A)
heavy: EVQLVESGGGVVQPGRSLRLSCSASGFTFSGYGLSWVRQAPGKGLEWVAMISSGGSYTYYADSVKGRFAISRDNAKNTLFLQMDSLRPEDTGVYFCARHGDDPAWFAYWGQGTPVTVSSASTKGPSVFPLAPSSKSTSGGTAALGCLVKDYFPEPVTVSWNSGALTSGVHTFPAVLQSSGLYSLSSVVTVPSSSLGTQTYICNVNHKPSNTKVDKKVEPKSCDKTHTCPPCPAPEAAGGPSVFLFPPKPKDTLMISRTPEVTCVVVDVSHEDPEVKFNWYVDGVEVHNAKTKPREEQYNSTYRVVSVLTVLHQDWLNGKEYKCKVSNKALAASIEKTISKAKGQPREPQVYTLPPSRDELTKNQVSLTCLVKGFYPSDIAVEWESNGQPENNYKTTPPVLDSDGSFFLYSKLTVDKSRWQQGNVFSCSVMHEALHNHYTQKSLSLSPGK
light: B6 light
notes: also called Farletuzumab-FS
B9: B-ADC55-1-6 (antibody, human IgG1, kappa, L234A L235A, V domains shown)
VH: QVQLVQSGAEVKKPGASVKVSCKASGYTFTDYFMNWVRQAPGQGLEWMGDVNPKTGSPSYNQKFKGRVTMTRDTSTSTVYMELSSLRSEDTAVYYCARRYGFLYSMDYWGQGTSVTVSS
VL: DIQMTQSPSSLSASVGDRVTITCRASQDISNYLNWYQQKPGKAVKVLIYYTSRLHSGVPSRFSGSGSGTDFTFTISSLQPEDIATYYCQQGNTHPFTFGGGTKVEIKR
modifications: linker-drug LD55-1 (exatecan payload) conjugated to sulfhydryls of reduced interchain disulfide cysteines; average DAR 5.7 per antibody
notes: Antibody-drug conjugate: 43B + LD55-1, DAR 5.7
B10: B-ADC2-1-6 (antibody, human IgG1, kappa, L234A L235A, V domains shown)
VH: B9 VH
VL: B9 VL
modifications: linker-drug LD2-1 (exatecan payload) conjugated to sulfhydryls of reduced interchain disulfide cysteines; average DAR 5.6 per antibody
notes: Antibody-drug conjugate: 43B + LD2-1, DAR 5.6
B11: B-ADC12-1-6 (antibody, human IgG1, kappa, L234A L235A, V domains shown)
VH: B9 VH
VL: B9 VL
modifications: linker-drug LD12-1 (exatecan payload) conjugated to sulfhydryls of reduced interchain disulfide cysteines; average DAR 6.0 per antibody
notes: Antibody-drug conjugate: 43B + LD12-1, DAR 6.0
B12: DSADC (antibody, V domains shown)
VH: QVQLVQSGAEVKKPGSSVKVSCKASGYTFTNYVMHWVRQAPGQGLEWMGYINPYNDDVKYNEKFKGRVTITADESTSTAYMELSSLRSEDTAVYYCARWGYYGSPLYYFDYWGQGTLVTVSS
VL: EIVLTQSPATLSLSPGERATLSCRASSRLIYMHWYQQKPGQAPRPLIYATSNLASGIPARFSGSGSGTDFTLTISSLEPEDFAVYYCQQWNSNPPTFGQGTKVEIKR
modifications: control linker-drug per CN104755494A conjugated to the antibody; average DAR 3.9 per antibody
notes: Control anti-B7H3 ADC; the tie of DSADC to M30 is by position and a drawing only; also called M30 antibody conjugate

The target in the first test is T1, recombinant human DLL3 protein (Kactus …). Briefly: ELISA, human DLL3 coated at 0.1 µg/mL, absorbance at 450 nm. For orientation: ELISA stands for enzyme-linked immunosorbent assay.
As for B1, the half-maximal effective concentration (EC50) (as a rule, the concentration needed to bring the measured effect to its halfway point) was 1.87 pM and the Emax amounted to 2.5. B2: the half-maximal effective concentration (EC50) was 5.84 pM and the Emax worked out at 2.6. The matching figures for B3: 5.27 pM and 2.6. Regarding B4, the EC50 stood at 4.64 pM and the Emax amounted to 2.5. The matching figures for B5: 6.28 pM and 2.5.

The target in another test is T3, FOLR1 antigen (Sino Biological, Cat. No. 11241-H08H) (UniProt P15328 25-233).
T3 construct: Bought protein coated on the ELISA plate; also called FRα
T3 sequence (P15328 25-233 limits assumed): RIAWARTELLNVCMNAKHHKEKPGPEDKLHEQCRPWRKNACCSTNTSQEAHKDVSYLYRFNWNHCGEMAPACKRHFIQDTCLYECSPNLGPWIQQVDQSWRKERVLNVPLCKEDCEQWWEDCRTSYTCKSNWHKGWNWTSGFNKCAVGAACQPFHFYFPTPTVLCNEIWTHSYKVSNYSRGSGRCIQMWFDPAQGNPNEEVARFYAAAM
As to the kind of experiment: ELISA, FOLR1 coated at 0.1 µg/mL, anti-human IgG-HRP detection.
B6 yielded an EC50 of 26.1 pM. As to B7, the midpoint of the response, the EC50, lay at 36.9 pM. Still for that read-out and setting: with B8 the figure was 19.9 pM.

The target of the next test is T2, B7H3 antigen on the surface of A375 …. Briefly: flow cytometry (MFI) on B7H3-positive A375 cells, anti-human Alexa Fluor 488. For orientation: A flow cytometer gives signals particle by particle.
Take B9: it took 0.0378 µg/mL to reach a half-maximal effect (EC50).

In the case of B10, the half-maximal effective concentration (EC50) amounted to 0.0416 µg/mL. The same measure, in the same setting: under B11 stands 0.04 µg/mL; under B12, 0.0925 µg/mL.
